Residue numbers refer to the chain shown, from its start. Names and notes keep the numbering of the source. Values belong to the binder of their own block, whether it stands above or below them.
Legend:
[1] = target: T1, Src-phosphorylated C3G (pC3G), wild type (human, UniProt Q13905-1 4-1077, phosphotyrosines (phosphorylated in vitro by Src; sites not stated)); test: cell-based or functional assay
T1 sequence (looked up): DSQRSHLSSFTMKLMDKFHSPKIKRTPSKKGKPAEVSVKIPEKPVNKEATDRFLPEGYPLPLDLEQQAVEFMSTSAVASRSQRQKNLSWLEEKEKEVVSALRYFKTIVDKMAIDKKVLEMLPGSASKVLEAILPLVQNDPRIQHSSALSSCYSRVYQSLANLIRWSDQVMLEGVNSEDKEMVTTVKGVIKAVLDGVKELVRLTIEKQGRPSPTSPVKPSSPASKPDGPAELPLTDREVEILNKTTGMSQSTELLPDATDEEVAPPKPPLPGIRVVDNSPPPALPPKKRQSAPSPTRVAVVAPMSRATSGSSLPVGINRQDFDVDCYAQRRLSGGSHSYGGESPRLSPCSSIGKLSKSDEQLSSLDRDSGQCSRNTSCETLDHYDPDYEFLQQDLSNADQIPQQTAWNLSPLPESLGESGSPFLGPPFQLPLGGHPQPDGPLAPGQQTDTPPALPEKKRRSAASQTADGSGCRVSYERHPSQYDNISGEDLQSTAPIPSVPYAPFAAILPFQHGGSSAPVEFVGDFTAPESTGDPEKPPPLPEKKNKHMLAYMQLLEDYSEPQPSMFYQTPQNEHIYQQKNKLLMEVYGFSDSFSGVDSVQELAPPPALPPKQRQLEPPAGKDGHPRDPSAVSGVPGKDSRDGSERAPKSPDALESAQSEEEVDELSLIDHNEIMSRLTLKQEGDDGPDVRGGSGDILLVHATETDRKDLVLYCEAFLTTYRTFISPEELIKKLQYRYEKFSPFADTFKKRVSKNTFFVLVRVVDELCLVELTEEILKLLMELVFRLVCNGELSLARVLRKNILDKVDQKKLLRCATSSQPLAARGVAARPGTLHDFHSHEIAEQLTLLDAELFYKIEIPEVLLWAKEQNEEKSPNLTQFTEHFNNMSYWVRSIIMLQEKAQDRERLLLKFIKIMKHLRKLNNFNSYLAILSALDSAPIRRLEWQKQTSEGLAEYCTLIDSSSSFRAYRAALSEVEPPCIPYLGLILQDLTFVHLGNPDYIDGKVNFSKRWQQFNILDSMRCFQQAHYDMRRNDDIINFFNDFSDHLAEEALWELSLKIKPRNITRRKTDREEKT

[2] = target: T2, C3G full-length wild type (human, isoform a, residues 4-1077) (human, UniProt Q13905-1 4-1077); test: cell-based or functional assay
T2 sequence (looked up): T1 sequence (looked up)

[3] = target: T3, Src-phosphorylated C3G-AAPA (pC3G-AAPA) (human, UniProt Q13905-1 4-1077, phosphotyrosines (phosphorylated in vitro by Src; sites not stated)); test: ITC; single-PRM mutants of C3G in the cell titrated with full-length CrkL or CrkL-SH3N; 25 °C; 1:1 model in SEDPHAT; N is the competent fraction of C3G; details: both partners purified
T3 chain: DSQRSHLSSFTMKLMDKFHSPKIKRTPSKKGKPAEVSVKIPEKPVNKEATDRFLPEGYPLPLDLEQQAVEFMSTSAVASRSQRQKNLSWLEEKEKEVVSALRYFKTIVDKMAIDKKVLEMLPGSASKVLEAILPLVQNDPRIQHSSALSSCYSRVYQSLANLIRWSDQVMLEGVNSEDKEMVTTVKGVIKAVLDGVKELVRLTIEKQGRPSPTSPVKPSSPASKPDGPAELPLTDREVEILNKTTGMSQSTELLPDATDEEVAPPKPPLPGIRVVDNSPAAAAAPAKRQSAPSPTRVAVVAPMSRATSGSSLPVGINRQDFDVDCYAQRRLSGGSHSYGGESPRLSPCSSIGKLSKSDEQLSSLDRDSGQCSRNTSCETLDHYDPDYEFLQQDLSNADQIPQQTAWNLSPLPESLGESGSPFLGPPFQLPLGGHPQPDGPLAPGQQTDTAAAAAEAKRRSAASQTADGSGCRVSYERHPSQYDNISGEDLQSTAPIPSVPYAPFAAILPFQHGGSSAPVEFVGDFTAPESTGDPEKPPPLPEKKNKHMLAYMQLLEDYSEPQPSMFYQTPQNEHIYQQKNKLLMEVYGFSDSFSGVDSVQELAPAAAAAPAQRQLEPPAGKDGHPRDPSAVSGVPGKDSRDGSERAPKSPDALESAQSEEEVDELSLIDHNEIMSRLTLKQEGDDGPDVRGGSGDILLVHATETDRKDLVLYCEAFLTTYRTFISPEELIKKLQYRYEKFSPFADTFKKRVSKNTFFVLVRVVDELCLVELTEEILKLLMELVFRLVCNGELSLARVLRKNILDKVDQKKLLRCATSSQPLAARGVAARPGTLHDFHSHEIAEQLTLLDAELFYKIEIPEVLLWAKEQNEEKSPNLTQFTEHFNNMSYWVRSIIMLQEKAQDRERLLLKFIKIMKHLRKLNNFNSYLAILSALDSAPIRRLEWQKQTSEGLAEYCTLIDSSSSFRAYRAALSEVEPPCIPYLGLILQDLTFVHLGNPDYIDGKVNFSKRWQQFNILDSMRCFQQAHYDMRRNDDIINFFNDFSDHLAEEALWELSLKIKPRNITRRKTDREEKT

C3G-AAPA-Y554H = C3G-AAPA-Y554H (human, UniProt Q13905-1 4-1077, Y554H); test: as above; details: both partners purified
[4] = target: T2, C3G full-length wild type (human, …); test: AUC; sedimentation velocity of C3G with increasing CrkL; 20 mM Tris-HCl, 300 mM NaCl, pH 7.5, 20 °C, 48,000 rpm; isotherms fitted with three symmetric sites (Gilbert-Jenkins), microscopic kd; details: both partners purified
[5] = target: T2, C3G full-length wild type (human, …); test: ITC; same three titrations of C3G with CrkL, global fit in SEDPHAT, three symmetric binding sites, microscopic kd; details: both partners purified
[6] = target: T1, Src-phosphorylated C3G (pC3G), wild type; test: cell-based or functional assay; remark: listed apart in the source
[7] = target: T1, Src-phosphorylated C3G (pC3G), wild type; test: ITC; full-length C3G or pC3G in the cell titrated with CrkL, CrkL fragments, CrkL-W160S or CrkII; 25 °C; 300 mM NaCl, pH 7.5; parameters in Table S11; details: both partners purified
[8] = target: T2, C3G full-length wild type (human, …); test: ITC; C3G in the cell titrated with CrkL; 25 °C; 300 mM NaCl, pH 7.5 (Tris-HCl or Na-phosphate); three titrations fitted one by one, independent-site model (MicroCal Origin); details: both partners purified
[9] = target: T1, Src-phosphorylated C3G (pC3G), wild type; test: pull-down; 30 µg GST-CrkL (full-length or SH3N) with 30 µg C3G on glutathione-agarose; 20 mM Tris-HCl, 150 mM NaCl, pH 7.5, 0.01% BSA; 30 min, 4 °C; washes with 0.1% Triton X-100; coomassie or western blot; details: both partners purified

AC50 of the dose-response activation of the GEF activity of pC3G (0.2 µM) on Rap1b:mant-dGDP [1]: 12.8 µM
kmax of the dose-response activation of the GEF activity of pC3G (0.2 µM) on Rap1b:mant-dGDP [1]: 0.0139 s^-1 µM^-1
AC50 of the dose-response activation of the GEF activity of C3G (1 µM) on Rap1b:mant-dGDP [2]: 26800 nM
kmax of the dose-response activation of the GEF activity of C3G (1 µM) on Rap1b:mant-dGDP [2]: 6300 M⁻¹ s⁻¹
stoichiometry N [3]: ~0.1
Kd (C3G-AAPA-Y554H): 800 nM
stoichiometry N (C3G-AAPA-Y554H): ~0.5 molecules of SH3N per molecule of C3G-AAPA-Y554H
B1: CrkL-SH3N (residues 125-182) (domain or fragment, human, UniProt P46109 125-182, looked up)
chain: LEYVRTLYDFPGNDAEDLPFKKGEILVIIEKPEEQWWSARNKDGRVGMIPVPYVEKLV
notes: human CrkL, SH3N domain, residues 125-182, in pETEV15b; also called SH3N domain of CrkL; isolated SH3N domain; source: E. coli BL21 (DE3), purified (His-tagged, purified in a similar manner as C3G)

Kd [4]: 1400 nM
koff [4]: > 0.001 s⁻¹
Kd [5]: 2300 nM
GEF activity of pC3G (0.2 µM) on Rap1b:mant-dGDP with 5 µM CrkL, fold over pC3G alone [6]: ~9 fold
AC50 of the dose-response activation of the GEF activity of pC3G (0.2 µM) on Rap1b:mant-dGDP [1]: 1.7 µM
kmax of the dose-response activation of the GEF activity of pC3G (0.2 µM) on Rap1b:mant-dGDP [1]: 0.0342 s^-1 µM^-1
AC50 of the dose-response activation of the GEF activity of C3G (1 µM) on Rap1b:mant-dGDP [2]: 22400 nM
kmax of the dose-response activation of the GEF activity of C3G (1 µM) on Rap1b:mant-dGDP [2]: 13400 M⁻¹ s⁻¹
Kd [7]: 1300 nM
Kd [8]: 2800 to 3600 nM
stoichiometry N [8]: ~3 molecules of CrkL per molecule of C3G
B2: CrkL, full-length (human) (natural protein, UniProt P46109 1-303, looked up)
chain: MSSARFDSSDRSAWYMGPVSRQEAQTRLQGQRHGMFLVRDSSTCPGDYVLSVSENSRVSHYIINSLPNRRFKIGDQEFDHLPALLEFYKIHYLDTTTLIEPAPRYPSPPMGSVSAPNLPTAEDNLEYVRTLYDFPGNDAEDLPFKKGEILVIIEKPEEQWWSARNKDGRVGMIPVPYVEKLVRSSPHGKHGNRNSNSYGIPEPAHAYAQPQTTTPLPAVSGSPGAAITPLPSTQNGPVFAKAIQKRVPCAYDKTALALEVGDIVKVTRMNINGQWEGEVNGRKGLFPFTHVKIFDPQNPDENE
notes: Monomer by sedimentation velocity and DLS (theoretical mass 33.7 kDa); Purification 'in a similar manner' as C3G would include TEV cleavage of the tag; also called Crk-like protein; wild type CrkL; source: E. coli BL21 (DE3), purified (His-tagged, purified in a similar manner as C3G)

binding result [9]: binds
B3: GST-CrkL R39K (natural protein, human, UniProt P46109 1-303, looked up)
chain: B2 chain with R39K
notes: human CrkL, full-length, R39K; the results print 'R93K alone', the methods and the sentence before print R39K; also called R93K; source: E. coli BL21 (DE3), purified GST fusion
